Measured values from patent US20240092890A1 (JUNTENDO EDUCATIONAL FOUNDATION, published 2024).

How the values were obtained:
[1] = target: T1, Ins 5 type mutant CALR protein on UT-7/TPO CALR Ins 5 cells (UniProt P27797 18-417); assay: cell-based or functional assay
T1 sequence (looked up): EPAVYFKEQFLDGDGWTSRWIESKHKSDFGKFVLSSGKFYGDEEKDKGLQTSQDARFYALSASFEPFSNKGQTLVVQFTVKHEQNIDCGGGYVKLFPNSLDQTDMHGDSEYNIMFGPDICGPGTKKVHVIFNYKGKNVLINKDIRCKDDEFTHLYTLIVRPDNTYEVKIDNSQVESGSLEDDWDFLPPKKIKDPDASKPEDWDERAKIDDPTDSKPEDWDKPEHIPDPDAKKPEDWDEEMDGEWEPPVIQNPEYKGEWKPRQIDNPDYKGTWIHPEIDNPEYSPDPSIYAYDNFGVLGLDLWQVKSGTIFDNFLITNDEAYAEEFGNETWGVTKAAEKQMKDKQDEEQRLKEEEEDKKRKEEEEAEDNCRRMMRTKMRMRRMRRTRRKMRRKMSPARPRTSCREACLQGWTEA

[2] = target: T2, protein having an Fc region and a His-tag added to the N-terminus of SEQ ID NO: 1; assay: BLItz biolayer interferometry, Fc/His-SEQ ID NO: 1 protein on the biosensor
T2 construct: also called mutant CALR protein (antigen of the BLItz measurement); not shown: Fc region and His-tag at the N-terminus
T2 chain: RRMMRTKMRMRRM
Description: As another method, measurements were performed using the molecular interaction analysis system BLItz (ForteBio), which applies biolayer interferometry […]. Specifically, a protein having an Fc region and a His-tag added to the N-terminus of SEQ ID NO: 1 was immobilized at a concentration of 0.1 mg/mL using the Anti-Penta-HIS or ProteinA biosensor (ForteBio). Subsequently, the antibodies 1 to 114 made were prepared at a concentration of 500, 100, and 50 nM and reacted to acquire the dissociation constant.

[3] = target: T1, Ins 5 type mutant CALR protein on …; assay: cell-based or functional assay; remark: listed apart in the source

B1: Antibody 16 (bispecific antibody)
heavy: QVQLQQSGAELVKPGSSVKISCKASGYTFTRNFIHWIKQQPGNGLEWIGWIFPGDGDTEYNQKFNGKATLTADKSSSTAYMQLSSLTSEDSAVYFCARGNYNYEYFDYWGQGVMVTVSSASTKGPSVFPLAPSSKSTSGGTAALGCLVKDYFPEPVTVSWNSGALTSGVHTFPAVLQSSGLYSLSSVVTVPSSSLGTQTYICNVNHKPSNTKVDKRVEPKSCGGGGSQVQLVQSGGGVVQPGRSLRLSCKASGYTFTRYTMHWVRQAPGKGLEWIGYINPSRGYTNYNQKVKDRFTISRDNSKNTAFLQMDSLRPEDTGVYFCARYYDDHYSLDYWGQGTPVTVSSGGGGSGGGGSGGGGSDIQMTQSPSSLSASVGDRVTITCSASSSVSYMNWYQQTPGKAPKRWIYDTSKLASGVPSRFSGSGSGTDYTFTISSLQPEDIATYYCQQWSSNPFTFGQGTKLQITRHHHHHH
light: DIQMTQSPASLSASLGETVSIECLASEDIYSYLAWYQQKPGKSPQLLIFAANRLQDGVPSRFSGSGSGTQFSLKISGMQPEDEGDYFCLQGSKFPYTFGPGTKLELNRTVAAPSVFIFPPSDEQLKSGTASVVCLLNNFYPREAKVQWKVDNALQSGNSQESVTEQDSKDSTYSLSSTLTLSKADYEKHKVYACEVTHQGLSSPVTKSFNRGEC
notes: B3 Fab with hOKT3 scFv fused to the Fab heavy chain C-terminus
EC50 of cytotoxic activity (calcein release, T-LAK effector cells) [1]: 0.334 nM | Kd [2]: 2.83 nM

B2: Antibody 17 (bispecific antibody)
heavy: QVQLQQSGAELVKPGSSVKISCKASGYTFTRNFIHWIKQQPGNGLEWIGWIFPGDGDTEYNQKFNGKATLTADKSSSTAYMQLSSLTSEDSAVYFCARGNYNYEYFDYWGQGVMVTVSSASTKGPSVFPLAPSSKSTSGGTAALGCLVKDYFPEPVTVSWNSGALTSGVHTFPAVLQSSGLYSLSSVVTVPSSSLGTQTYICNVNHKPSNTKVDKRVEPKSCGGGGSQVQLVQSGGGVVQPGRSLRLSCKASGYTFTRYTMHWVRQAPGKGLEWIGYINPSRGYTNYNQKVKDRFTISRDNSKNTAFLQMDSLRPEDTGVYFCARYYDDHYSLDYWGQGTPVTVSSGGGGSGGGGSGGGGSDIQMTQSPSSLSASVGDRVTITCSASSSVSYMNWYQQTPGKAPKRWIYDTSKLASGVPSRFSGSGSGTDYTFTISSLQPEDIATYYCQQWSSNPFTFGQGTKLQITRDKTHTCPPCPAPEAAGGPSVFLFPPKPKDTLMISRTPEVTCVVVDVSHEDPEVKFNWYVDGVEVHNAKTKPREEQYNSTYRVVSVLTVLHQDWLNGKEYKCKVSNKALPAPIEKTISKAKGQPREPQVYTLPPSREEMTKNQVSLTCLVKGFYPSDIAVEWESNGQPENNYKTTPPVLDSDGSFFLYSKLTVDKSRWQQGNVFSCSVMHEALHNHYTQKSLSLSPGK
light: DIQMTQSPASLSASLGETVSIECLASEDIYSYLAWYQQKPGKSPQLLIFAANRLQDGVPSRFSGSGSGTQFSLKISGMQPEDEGDYFCLQGSKFPYTFGPGTKLELNRTVAAPSVFIFPPSDEQLKSGTASVVCLLNNFYPREAKVQWKVDNALQSGNSQESVTEQDSKDSTYSLSSTLTLSKADYEKHKVYACEVTHQGLSSPVTKSFNRGEC
notes: B3 Fab heavy chain, hOKT3 scFv and Fc in one polypeptide, with the B3 light chain
EC50 of cytotoxic activity (calcein release, T-LAK effector cells) [1]: 0.046 nM | Kd [2]: < 0.001 nM

B3: Antibody 18 (bispecific antibody)
heavy: QVQLQQSGAELVKPGSSVKISCKASGYTFTRNFIHWIKQQPGNGLEWIGWIFPGDGDTEYNQKFNGKATLTADKSSSTAYMQLSSLTSEDSAVYFCARGNYNYEYFDYWGQGVMVTVSSASTKGPSVFPLAPSSKSTSGGTAALGCLVKDYFPEPVTVSWNSGALTSGVHTFPAVLQSSGLYSLSSVVTVPSSSLGTQTYICNVNHKPSNTKVDKRVEPKSCGGGGSQVQLVQSGGGVVQPGRSLRLSCKASGYTFTRYTMHWVRQAPGKGLEWIGYINPSRGYTNYNQKVKDRFTISRDNSKNTAFLQMDSLRPEDTGVYFCARYYDDHYSLDYWGQGTPVTVSSGGGGSGGGGSGGGGSDIQMTQSPSSLSASVGDRVTITCSASSSVSYMNWYQQTPGKAPKRWIYDTSKLASGVPSRFSGSGSGTDYTFTISSLQPEDIATYYCQQWSSNPFTFGQGTKLQITRAAAGGGQPREPQVYTLPPSREEMTKNQVSLTCLVKGFYPSDIAVEWESNGQPENNYKTTPPVLDSDGSFFLYSKLTVDKSRWQQGNVFSCSVMHEALHNHYTQKSLSLSPGK
light: DIQMTQSPASLSASLGETVSIECLASEDIYSYLAWYQQKPGKSPQLLIFAANRLQDGVPSRFSGSGSGTQFSLKISGMQPEDEGDYFCLQGSKFPYTFGPGTKLELNRTVAAPSVFIFPPSDEQLKSGTASVVCLLNNFYPREAKVQWKVDNALQSGNSQESVTEQDSKDSTYSLSSTLTLSKADYEKHKVYACEVTHQGLSSPVTKSFNRGEC
notes: B3 Fab heavy chain, hOKT3 scFv and CH3 domain in one polypeptide, with the B3 light chain
EC50 of cytotoxic activity (calcein release, T-LAK effector cells) [1]: 0.081 nM | Kd [2]: < 0.001 nM

B4: Antibody 19 (bispecific antibody)
heavy: QVQLQQSGAELVKPGSSVKISCKASGYTFTRNFIHWIKQQPGNGLEWIGWIFPGDGDTEYNQKFNGKATLTADKSSSTAYMQLSSLTSEDSAVYFCARGNYNYEYFDYWGQGVMVTVSSASTKGPSVFPLAPSSKSTSGGTAALGCLVKDYFPEPVTVSWNSGALTSGVHTFPAVLQSSGLYSLSSVVTVPSSSLGTQTYICNVNHKPSNTKVDKRVEPKSCGGGGSQVQLVQSGGGVVQPGRSLRLSCKASGYTFTRYTMHWVRQAPGKGLEWIGYINPSRGYTNYNQKVKDRFTISRDNSKNTAFLQMDSLRPEDTGVYFCARYYDDHYSLDYWGQGTPVTVSSGGGGSGGGGSGGGGSDIQMTQSPSSLSASVGDRVTITCSASSSVSYMNWYQQTPGKAPKRWIYDTSKLASGVPSRFSGSGSGTDYTFTISSLQPEDIATYYCQQWSSNPFTFGQGTKLQITRGGGGSQVQLQQSGAELVKPGSSVKISCKASGYTFTRNFIHWIKQQPGNGLEWIGWIFPGDGDTEYNQKFNGKATLTADKSSSTAYMQLSSLTSEDSAVYFCARGNYNYEYFDYWGQGVMVTVSSASTKGPSVFPLAPSSKSTSGGTAALGCLVKDYFPEPVTVSWNSGALTSGVHTFPAVLQSSGLYSLSSVVTVPSSSLGTQTYICNVNHKPSNTKVDKRVEPKSCHHHHHH
light: DIQMTQSPASLSASLGETVSIECLASEDIYSYLAWYQQKPGKSPQLLIFAANRLQDGVPSRFSGSGSGTQFSLKISGMQPEDEGDYFCLQGSKFPYTFGPGTKLELNRTVAAPSVFIFPPSDEQLKSGTASVVCLLNNFYPREAKVQWKVDNALQSGNSQESVTEQDSKDSTYSLSSTLTLSKADYEKHKVYACEVTHQGLSSPVTKSFNRGEC
notes: B3 Fab heavy chain, hOKT3 scFv and a second B3 Fab heavy chain in one polypeptide, with the B3 light chain
EC50 of cytotoxic activity (calcein release, T-LAK effector cells) [1]: 3.71 nM | Kd [2]: 0.728 nM

B5: Antibody 20 (bispecific antibody)
heavy: QVQLVQSGGGVVQPGRSLRLSCKASGYTFTRYTMHWVRQAPGKGLEWIGYINPSRGYTNYNQKVKDRFTISRDNSKNTAFLQMDSLRPEDTGVYFCARYYDDHYSLDYWGQGTPVTVSSGGGGSGGGGSGGGGSDIQMTQSPSSLSASVGDRVTITCSASSSVSYMNWYQQTPGKAPKRWIYDTSKLASGVPSRFSGSGSGTDYTFTISSLQPEDIATYYCQQWSSNPFTFGQGTKLQITRGGGGSQVQLQQSGAELVKPGSSVKISCKASGYTFTRNFIHWIKQQPGNGLEWIGWIFPGDGDTEYNQKFNGKATLTADKSSSTAYMQLSSLTSEDSAVYFCARGNYNYEYFDYWGQGVMVTVSSASTKGPSVFPLAPSSKSTSGGTAALGCLVKDYFPEPVTVSWNSGALTSGVHTFPAVLQSSGLYSLSSVVTVPSSSLGTQTYICNVNHKPSNTKVDKRVEPKSCHHHHHH
light: DIQMTQSPASLSASLGETVSIECLASEDIYSYLAWYQQKPGKSPQLLIFAANRLQDGVPSRFSGSGSGTQFSLKISGMQPEDEGDYFCLQGSKFPYTFGPGTKLELNRTVAAPSVFIFPPSDEQLKSGTASVVCLLNNFYPREAKVQWKVDNALQSGNSQESVTEQDSKDSTYSLSSTLTLSKADYEKHKVYACEVTHQGLSSPVTKSFNRGEC
notes: hOKT3 scFv fused to the N-terminus of the B3 Fab heavy chain
EC50 of cytotoxic activity (calcein release, T-LAK effector cells) [1]: 1.46 nM | Kd [2]: 12.4 nM

B6: Antibody 25 (bispecific antibody)
heavy: QVQLQQSGAELVKPGSSVKISCKASGYTFTRNFIHWIKQQPGNGLEWIGWIFPGDGDTEYNQKFNGKATLTADKSSSTAYMQLSSLTSEDSAVYFCARGNYNYEYFDYWGQGVMVTVSSASTKGPSVFPLAPSSKSTSGGTAALGCLVKDYFPEPVTVSWNSGALTSGVHTFPAVLQSSGLYSLSSVVTVPSSSLGTQTYICNVNHKPSNTKVDKRVEPKSCAAAGGGQPREPQVYTLPPSREEMTKNQVSLTCLVKGFYPSDIAVEWESNGQPENNYKTTPPVLDSDGSFFLYSKLTVDKSRWQQGNVFSCSVMHEALHNHYTQKSLSLSPGK
light: QVQLVQSGGGVVQPGRSLRLSCKASGYTFTRYTMHWVRQAPGKGLEWIGYINPSRGYTNYNQKVKDRFTISRDNSKNTAFLQMDSLRPEDTGVYFCARYYDDHYSLDYWGQGTPVTVSSGGGGSGGGGSGGGGSDIQMTQSPSSLSASVGDRVTITCSASSSVSYMNWYQQTPGKAPKRWIYDTSKLASGVPSRFSGSGSGTDYTFTISSLQPEDIATYYCQQWSSNPFTFGQGTKLQITRGGGGSDIQMTQSPASLSASLGETVSIECLASEDIYSYLAWYQQKPGKSPQLLIFAANRLQDGVPSRFSGSGSGTQFSLKISGMQPEDEGDYFCLQGSKFPYTFGPGTKLELNRTVAAPSVFIFPPSDEQLKSGTASVVCLLNNFYPREAKVQWKVDNALQSGNSQESVTEQDSKDSTYSLSSTLTLSKADYEKHKVYACEVTHQGLSSPVTKSFNRGEC
EC50 of cytotoxic activity (calcein release, T-LAK effector cells) [1]: 0.056 nM

B7: Antibody 85 (bispecific antibody)
chain 1: not shown
chain 2: DIQMTQSPSSLSASVGDRVTITCLASEDIYSYLAWYQQKPGKAPKLLIFAANRLQSGVPSRFSGSGSGTDFTLTISSLQPEDFATYYCLQGSKFPYTFGPGTKVDIKRTVAAPSVFIFPPSDEQLKSGTASVVCLLNNFYPREAKVQWKVDNALQSGNSQESVTEQDSKDSTYSLSSTLTLSKADYEKHKVYACEVTHQGLSSPVTKSFNRGEC
EC50 of cytotoxic activity (pM) [3]: 389 pM | Kd [2]: < 0.001 nM

B8: Antibody 11 (bispecific antibody)
chain: QVQLVQSGGGVVQPGRSLRLSCKASGYTFTRYTMHWVRQAPGKGLEWIGYINPSRGYTNYNQKVKDRFTISRDNSKNTAFLQMDSLRPEDTGVYFCARYYDDHYSLDYWGQGTPVTVSSGGGGSGGGGSGGGGSDIQMTQSPSSLSASVGDRVTITCSASSSVSYMNWYQQTPGKAPKRWIYDTSKLASGVPSRFSGSGSGTDYTFTISSLQPEDIATYYCQQWSSNPFTFGQGTKLQITRGGGGSQVQLQQSGAELVKPGSSVKISCKASGYTFTRNFIHWIKQQPGNGLEWIGWIFPGDGDTEYNQKFNGKATLTADKSSSTAYMQLSSLTSEDSAVYFCARGNYNYEYFDYWGQGVMVTVSSGGGGSGGGGSGGGGSDIQMTQSPASLSASLGETVSIECLASEDIYSYLAWYQQKPGKSPQLLIFAANRLQDGVPSRFSGSGSGTQFSLKISGMQPEDEGDYFCLQGSKFPYTFGPGTKLELNHHHHHH
EC50 of cytotoxic activity (calcein release, T-LAK effector cells) [1]: 1.26 nM
